As a reminder, the stoichiometry N is a count of units in the complex or per binding partner.

One protein from article PMC12088422 (Proceedings of the National Academy of Sciences of the …, 2025) can be followed below.

This data set deals with the molecule itself. Nature of the data set: SEC-MALS. (SEC sorts molecules by how far they enter the pores of the column.)

B1: Pseudomonas aeruginosa PAO1 glutamyl-tRNA synthetase (enzyme, UniProt Q9XCL6 1-494, looked up)
chain: MTTVRTRIAPSPTGDPHVGTAYIALFNLCFARQHGGQFILRIEDTDQLRSTRESEQQIYDALRWLGIEWDEGPDVGGPHGPYRQSERGHIYKKYSDELVEKGHAFTCFCTPERLDAVRAEQMARKETPRYDGHCMHLPKDEVQRRLAAGESHVTRMKVPTEGVCVVPDMLRGDVEIPWDRMDMQVLMKADGLPTYFLANVVDDHLMGITHVLRGEEWLPSAPKLIKLYEYFGWEQPQLCYMPLLRNPDKSKLSKRKNPTSITFYERMGYLPQALLNYLGRMGWSMPDEREKFTLAEMIEHFDLSRVSLGGPIFDLEKLSWLNGQWIREQSVEEFAREVQKWALNPEYLMKIAPHVQGRVENFSQIAPLAGFFFSGGVPLDASLFEHKKLDPTQVRQVLQLVLWKLESLRQWEKERITGCIQAVAEHLQLKLRDVMPLMFPAITGHASSVSVLDAMEILGADLSRYRLRQALELLGGASKKETKEWEKIRDAIPG
Consider B1, for which the “stoichiometry N” value worked out at 2.
